Data from US20250223358A1 (ANTENGENE BIOLOGICS, published 2025).
Residue numbers refer to the chain shown, from its start. Numbers in names are those of the source. Like-named read-outs stand apart in the source and are kept apart here.

What was measured:
cynomolgus CD3 [1] = target: T1, cynomolgus CD3 (cynomolgus (Macaca fascicularis), UniProt Q95LI5 22-198; Q95LI8 22-171; Q95LI7 23-181); assay: FACS on 293T-cynoCD3mix cells
T1 construct: whole, on cells; composition of the 'mix' not defined; also called cynoCD3

human CD3 [2] = target: T2, human CD3 (human, UniProt P07766 23-207; P04234 22-171; P09693 23-182); assay: cell-based or functional assay
human CD3 [3] = target: T2, human CD3; assay: FACS on Jurkat cells
cynomolgus CD3 [4] = target: T1, cynomolgus CD3; assay: FACS on 293T-cynoCD3mix cells; remark: listed apart in the source
human CD3 [5] = target: T2, human CD3; assay: cell-based or functional assay; remark: listed apart in the source
human CD3 [6] = target: T2, human CD3; assay: FACS on Jurkat cells; remark: listed apart in the source
human CD3 [7] = target: T2, human CD3; assay: cell-based or functional assay; remark: listed apart in the source
human CD3 [8] = target: T2, human CD3; assay: FACS on Jurkat cells; remark: listed apart in the source

T2 sequence (P07766 23-207, chain 1 of 3): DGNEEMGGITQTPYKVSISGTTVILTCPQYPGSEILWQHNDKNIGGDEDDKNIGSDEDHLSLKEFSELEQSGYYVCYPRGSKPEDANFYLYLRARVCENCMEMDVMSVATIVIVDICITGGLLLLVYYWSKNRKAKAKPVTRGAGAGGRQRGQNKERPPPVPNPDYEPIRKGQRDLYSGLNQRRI
T2 sequence (P04234 22-171, chain 2 of 3): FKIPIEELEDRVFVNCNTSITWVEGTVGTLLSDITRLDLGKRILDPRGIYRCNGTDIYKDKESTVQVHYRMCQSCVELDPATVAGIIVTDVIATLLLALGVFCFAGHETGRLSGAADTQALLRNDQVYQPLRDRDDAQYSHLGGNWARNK
T2 sequence (P09693 23-182, chain 3 of 3): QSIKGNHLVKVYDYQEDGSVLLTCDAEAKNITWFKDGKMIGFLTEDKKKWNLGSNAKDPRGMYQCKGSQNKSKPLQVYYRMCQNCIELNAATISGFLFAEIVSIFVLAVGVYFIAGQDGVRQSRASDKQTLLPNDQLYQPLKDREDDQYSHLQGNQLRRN
T1 sequence (Q95LI5 22-198, chain 1 of 3): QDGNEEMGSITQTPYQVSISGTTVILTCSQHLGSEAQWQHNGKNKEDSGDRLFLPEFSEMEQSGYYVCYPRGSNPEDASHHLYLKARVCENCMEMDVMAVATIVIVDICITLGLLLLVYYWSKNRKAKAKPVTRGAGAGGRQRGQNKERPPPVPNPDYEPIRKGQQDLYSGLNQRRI
T1 sequence (Q95LI8 22-171, chain 2 of 3): as the sequence (P04234 22-171, chain 2 of 3) above, with I5V, N15K, I20V, S32T, D33N, I34N, T64A, S74N, V83L, H141R counted along it
T1 sequence (Q95LI7 23-181, chain 3 of 3): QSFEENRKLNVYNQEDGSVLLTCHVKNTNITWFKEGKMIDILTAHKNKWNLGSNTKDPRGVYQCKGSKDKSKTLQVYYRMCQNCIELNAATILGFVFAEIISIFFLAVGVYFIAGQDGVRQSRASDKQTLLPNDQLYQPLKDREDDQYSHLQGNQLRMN

B1: ch126A11A4 (antibody, V domains shown)
VH: QVQLQQPGTELVKPGASVKLSCKASGYTFTSYWMHWVKQRPEQGLEWIGNINPSNGDTNYNEKFKSKATLTVDKASNTAYMQLSSLTSEDSAVYYCGRDRSSQYYFDYWGQGTTLTVSS
VL: DIVMSQSPSSLAVSAGEKVTMSCKSSQSLLNSRTRKNYLAWYQQKPGQSPKLLIYWASTRESGVPDRFTGSGSGTDFTLTISSVQAEDLAVYFCKQSFILRTFGGGTKLEIK
- EC50 (cynomolgus CD3 [1]): 2.91 nM
- Top signal (cynomolgus CD3 [1]): 57000
- EC50 (Jurkat-NFAT-luciferase activation) (human CD3 [2]): 33.6 nM
- Top signal (Jurkat-NFAT-luciferase activation) (human CD3 [2]): 682
- EC50 (human CD3 [3]): 0.567 nM
- Top signal (human CD3 [3]): 1760

B2: ch124E3D6 (antibody, V domains shown)
VH: B1 VH with E42G, A75S, N77S, G97A
VL: B1 VL with F93Y, F98Y, I99N
- EC50 (cynomolgus CD3 [1]): 2.64 nM
- Top signal (cynomolgus CD3 [1]): 45800
- EC50 (Jurkat-NFAT-luciferase activation) (human CD3 [2]): 32.4 nM
- Top signal (Jurkat-NFAT-luciferase activation) (human CD3 [2]): 482

B3: ch133B4C7 (antibody, V domains shown)
VH: B1 VH with E42G, Y60F, A75S, N77S, G97A
VL: B1 VL with K24N, F93Y, F98Y, I99T
- EC50 (cynomolgus CD3 [1]): 2.81 nM
- Top signal (cynomolgus CD3 [1]): 45200
- EC50 (Jurkat-NFAT-luciferase activation) (human CD3 [2]): 28 nM
- Top signal (Jurkat-NFAT-luciferase activation) (human CD3 [2]): 290

B4: ch127E2D3 (antibody, V domains shown)
VH: QVQLQQPGTELVKPGASVKLSCKASGYTFTSYWMHWVKQRPGEGLEWIGNIYPGSSSINYNEKFKSKATLTVDKSSSTAYMQLSSLTSEDSAVYYCARDRSSQYYFDYWGQGTTLTVSS
VL: B1 VL with F93Y, K95T, F98Y, I99N
- EC50 (cynomolgus CD3 [1]): 2.33 nM
- Top signal (cynomolgus CD3 [1]): 46900
- EC50 (Jurkat-NFAT-luciferase activation) (human CD3 [2]): 61.7 nM
- Top signal (Jurkat-NFAT-luciferase activation) (human CD3 [2]): 337

B5: ch140D2B10 (antibody, V domains shown)
VH: B1 VH with E42G, D57E, T58S, A75S, N77S, S91Y, G97A
VL: B1 VL with F93Y, F98Y, I99T
- EC50 (cynomolgus CD3 [1]): 2.81 nM
- Top signal (cynomolgus CD3 [1]): 52900

B6: hu147E2-L1H3 (antibody, V domains shown)
VH: EVQLVQSGAEVKKPGSSVKVSCKASGYTFTSYWMHWVRQAPGQGLEWMGNINPSNGATNYNEKFKSRVTLTVDKSTSTAYMELSSLRSEDTAVYYCARDRSSQYYFDYWGQGTTVTVSS
VL: DIVMTQSPDSLAVSLGERATINCKSSQSLLNSRSRKNYLAWYQQKPGQPPKLLIYWASTRESGVPDRFSGSGSGTDFTLTISSLQAEDVAVYYCTQSYTLRTFGGGTKVEIK
notes: humanized 147E11E2; also called hu14E2-L1H3
- EC50 (cynomolgus CD3 [4]): 1.51 nM
- Top signal (cynomolgus CD3 [4]): 19200
- EC50_Fold change (Jurkat-NFAT-luciferase activation, normalized to ch147E11E2) (human CD3 [5]): 1.98 fold
- Top FACS signal_Fold change (Jurkat-NFAT-luciferase activation, normalized to ch147E11E2) (human CD3 [5]): 1 fold

B7: hu147E2-L3H3 (antibody, V domains shown)
VH: B6 VH
VL: DIQMTQSPSSLSASVGDRVTITCKSSQSLLNSRSRKNYLAWYQQKPGKAPKLLIYWASTRESGVPSRFSGSGSGTDFTLTISSLQPEDFATYYCTQSYTLRTFGGGTKVEIK
notes: humanized 147E11E2; also called hu14E2-L3H3
- EC50 (human CD3 [6]): 0.659 nM
- Top FACS signal (human CD3 [6]): 2680
- EC50 (cynomolgus CD3 [4]): 1.63 nM
- Top signal (cynomolgus CD3 [4]): 19000
- EC50_Fold change (Jurkat-NFAT-luciferase activation, normalized to ch147E11E2) (human CD3 [5]): 1.36 fold
- Top FACS signal_Fold change (Jurkat-NFAT-luciferase activation, normalized to ch147E11E2) (human CD3 [5]): 0.68 fold

B8: hu147E2-L2H4 (antibody, V domains shown)
VH: B6 VH with M48I, V68A
VL: B6 VL with P49S
notes: humanized 147E11E2; also called hu14E2-L2H4
- EC50 (cynomolgus CD3 [4]): 2.02 nM
- Top signal (cynomolgus CD3 [4]): 21200
- EC50_Fold change (Jurkat-NFAT-luciferase activation, normalized to ch147E11E2) (human CD3 [5]): 1.24 fold
- Top FACS signal_Fold change (Jurkat-NFAT-luciferase activation, normalized to ch147E11E2) (human CD3 [5]): 0.99 fold

B9: hu147E2-L1H3a (antibody, V domains shown)
VH: B6 VH with N55Q
VL: B6 VL
notes: humanized 147E11E2 with N55Q in HCDR2 (deamidation site removed); also called hu14E2-L1H3a
- EC50 (cynomolgus CD3 [4]): 1.66 nM
- Top signal (cynomolgus CD3 [4]): 20700

B10: hu147E2-L3H2 (antibody, V domains shown)
VH: B6 VH with L70I, V72A
VL: B7 VL
notes: humanized 147E11E2; also called hu14E2-L3H2
- EC50 (human CD3 [6]): 0.891 nM
- Top FACS signal (human CD3 [6]): 2730
- EC50 (cynomolgus CD3 [4]): 1.77 nM
- Top signal (cynomolgus CD3 [4]): 19200
- EC50_Fold change (Jurkat-NFAT-luciferase activation, normalized to ch147E11E2) (human CD3 [5]): 1.66 fold
- Top FACS signal_Fold change (Jurkat-NFAT-luciferase activation, normalized to ch147E11E2) (human CD3 [5]): 0.76 fold

B11: hu147E2-L1H2 (antibody, V domains shown)
VH: B6 VH with L70I, V72A
VL: B6 VL
notes: humanized 147E11E2; also called hu14E2-L1H2
- EC50 (cynomolgus CD3 [4]): 2.01 nM
- Top signal (cynomolgus CD3 [4]): 19700

B12: hu147E2-L3H4 (antibody, V domains shown)
VH: B6 VH with M48I, V68A
VL: B7 VL
notes: humanized 147E11E2; also called hu14E2-L3H4
- EC50 (human CD3 [6]): 0.671 nM
- Top FACS signal (human CD3 [6]): 2680
- EC50 (cynomolgus CD3 [4]): 1.29 nM
- Top signal (cynomolgus CD3 [4]): 16100
- EC50_Fold change (Jurkat-NFAT-luciferase activation, normalized to ch147E11E2) (human CD3 [5]): 2.12 fold
- Top FACS signal_Fold change (Jurkat-NFAT-luciferase activation, normalized to ch147E11E2) (human CD3 [5]): 0.6 fold

B13: hu147E2-L2H2 (antibody, V domains shown)
VH: B6 VH with L70I, V72A
VL: B6 VL with P49S
notes: humanized 147E11E2; also called hu14E2-L2H2
- EC50 (cynomolgus CD3 [4]): 1.64 nM
- Top signal (cynomolgus CD3 [4]): 20500
- EC50_Fold change (Jurkat-NFAT-luciferase activation, normalized to ch147E11E2) (human CD3 [5]): 1.4 fold
- Top FACS signal_Fold change (Jurkat-NFAT-luciferase activation, normalized to ch147E11E2) (human CD3 [5]): 0.9 fold

B14: hu147E2-L1H3b (antibody, V domains shown)
VH: B6 VH with N55S
VL: B6 VL
notes: humanized 147E11E2 with N55S in HCDR2 (deamidation site removed); also called hu14E2-L1H3b
- EC50 (cynomolgus CD3 [4]): 1.68 nM
- Top signal (cynomolgus CD3 [4]): 21100
- EC50_Fold change (Jurkat-NFAT-luciferase activation, normalized to ch147E11E2) (human CD3 [5]): 1.73 fold
- Top FACS signal_Fold change (Jurkat-NFAT-luciferase activation, normalized to ch147E11E2) (human CD3 [5]): 0.87 fold

B15: hu147E2-L2H3 (antibody, V domains shown)
VH: B6 VH
VL: B6 VL with P49S
notes: humanized 147E11E2; also called hu14E2-L2H3
- EC50 (cynomolgus CD3 [4]): 1.86 nM
- Top signal (cynomolgus CD3 [4]): 21000
- EC50_Fold change (Jurkat-NFAT-luciferase activation, normalized to ch147E11E2) (human CD3 [5]): 1.65 fold
- Top FACS signal_Fold change (Jurkat-NFAT-luciferase activation, normalized to ch147E11E2) (human CD3 [5]): 0.78 fold

B16: hu147E2-L1H4 (antibody, V domains shown)
VH: B6 VH with M48I, V68A
VL: B6 VL
notes: humanized 147E11E2; also called hu14E2-L1H4
- EC50 (cynomolgus CD3 [4]): 1.31 nM
- Top signal (cynomolgus CD3 [4]): 18700
- EC50_Fold change (Jurkat-NFAT-luciferase activation, normalized to ch147E11E2) (human CD3 [5]): 1.21 fold
- Top FACS signal_Fold change (Jurkat-NFAT-luciferase activation, normalized to ch147E11E2) (human CD3 [5]): 0.92 fold

B17: hu40E9-L4H3 (antibody, V domains shown)
VH: EVQLVQSGAEVKKPGSSVKVSCKASGYTFSSYVIHWVRQAPGQGLEWMGYINPYNDVIKYNEKFKGRVTLTSDKSTSTAYMELSSLRSEDTAVYYCARDSYYSYDGFAYWGQGTLVTVSS
VL: EIVLTQSPDFQSVTPKEKVTITCSASSSVSYMHWYQQKPDQSPKRLIYDTSKLASGVPSRFSGSGSGTDFTLTINSLEAEDAATYYCQQWRSRPPTFGGGTKVEIK
- EC50_Fold change (Jurkat-NFAT-luciferase activation, normalized to ch40-C12-C10-E9) (human CD3 [7]): 1.82 fold
- Top signal_Fold change (Jurkat-NFAT-luciferase activation, normalized to ch40-C12-C10-E9) (human CD3 [7]): 1.08 fold
- EC50 (human CD3 [8]): 1.59 nM
- Top FACS signal (human CD3 [8]): 2490

B18: hu40E9-L5H7 (antibody, V domains shown)
VH: B17 VH with Y54G, D56G, Y102S
VL: B17 VL with R93S
- EC50_Fold change (Jurkat-NFAT-luciferase activation, normalized to ch40-C12-C10-E9) (human CD3 [7]): 3.41 fold
- Top signal_Fold change (Jurkat-NFAT-luciferase activation, normalized to ch40-C12-C10-E9) (human CD3 [7]): 1.15 fold
- EC50 (human CD3 [8]): 0.48 nM
- Top FACS signal (human CD3 [8]): 1850

B19: hu40E9-L5H3 (antibody, V domains shown)
VH: B17 VH
VL: B17 VL with R93S
- EC50_Fold change (Jurkat-NFAT-luciferase activation, normalized to ch40-C12-C10-E9) (human CD3 [7]): 23.2 fold
- Top signal_Fold change (Jurkat-NFAT-luciferase activation, normalized to ch40-C12-C10-E9) (human CD3 [7]): 1.47 fold
- EC50 (human CD3 [8]): 0.66 nM
- Top FACS signal (human CD3 [8]): 2490

B20: hu40E9-L6H3 (antibody, V domains shown)
VH: B17 VH
VL: B17 VL with R93W
- EC50_Fold change (Jurkat-NFAT-luciferase activation, normalized to ch40-C12-C10-E9) (human CD3 [7]): 4.34 fold
- Top signal_Fold change (Jurkat-NFAT-luciferase activation, normalized to ch40-C12-C10-E9) (human CD3 [7]): 0.95 fold
- EC50 (human CD3 [8]): 0.8 nM
- Top FACS signal (human CD3 [8]): 1990

B21: hu40E9-L5H8 (antibody, V domains shown)
VH: B17 VH with Y54G, D99E, Y102S
VL: B17 VL with R93S
- Top signal_Fold change (Jurkat-NFAT-luciferase activation, normalized to ch40-C12-C10-E9) (human CD3 [7]): 0.3 fold
- EC50 (human CD3 [8]): 25.4 nM
- Top FACS signal (human CD3 [8]): 531

B22: hu40E9-L4H8 (antibody, V domains shown)
VH: B17 VH with Y54G, D99E, Y102S
VL: B17 VL
- Top signal_Fold change (Jurkat-NFAT-luciferase activation, normalized to ch40-C12-C10-E9) (human CD3 [7]): 0.32 fold
- EC50 (human CD3 [8]): 26.9 nM
- Top FACS signal (human CD3 [8]): 255

B23: hu40E9-L4H7 (antibody, V domains shown)
VH: B17 VH with Y54G, D56G, Y102S
VL: B17 VL
- EC50_Fold change (Jurkat-NFAT-luciferase activation, normalized to ch40-C12-C10-E9) (human CD3 [7]): 1.95 fold
- Top signal_Fold change (Jurkat-NFAT-luciferase activation, normalized to ch40-C12-C10-E9) (human CD3 [7]): 1.12 fold
- EC50 (human CD3 [8]): 1.52 nM
- Top FACS signal (human CD3 [8]): 1900
